Measurements as given in patent US20260248897.

Columns and labels:
[1] = molecular target: T1, RBD of hCoV-229E, P15423
T1 chain: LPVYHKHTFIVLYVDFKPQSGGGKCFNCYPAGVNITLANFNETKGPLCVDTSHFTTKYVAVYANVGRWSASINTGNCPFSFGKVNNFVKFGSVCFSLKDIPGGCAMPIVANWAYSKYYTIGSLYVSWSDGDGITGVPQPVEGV

[2] = molecular target: RBD of SARS-CoV-2 (B lineage), P0DTC2

B1: gene recombinant of human P5 (protein disulfide isomerase family A member 6) (protein)
chain: MGSSHHHHHHSSGLVPRGSHMLYSSSDDVIELTPSNFNREVIQSDSLWLVEFYAPWCGHCQRLTPEWKKAATALKDVVKVGAVDADKHHSLGGQYGVQGFPTIKIFGSNKNRPEDYQGGRTGEAIVDAALSALRQLVKDRLGGRSGGYSSGKQGRSDSSSKKDVIELTDDSFDKNVLDSEDVWMVEFYAPWCGHCKNLEPEWAAAASEVKEQTKGKVKLAAVDATVNQVLASRYGIRGFPTIKIFQKGESPVDYDGGRTRSDIVSRALDLFSDNAPPPELLEIINEDIAKRTCEEHQLCVVAVLPHILDTGAAGRNSYLEVLLKLADKYKKKMWGWLWTEAGAQSELETALGIGGFGYPAMAAINARKMKFALLKGSFSEQGINEFLRELSFGRGSTAPVGGGAFPTIVEREPWDGRDGELPVEDDIDLSDVELDDLGKDEL
With B1 the “disulfide bond cleavage activity (remaining rate of native RBD; maleimide-PEG 2k, SDS-PAGE)” value [1] was “The order of the disulfide bond cleavage activity of the RBD of hCoV-229E from highest to lowest was PDI, ERp46, P5, Erp57, and ERp72” and the “disulfide bond cleavage activity (remaining rate of native RBD; maleimide-PEG 2k, SDS-PAGE)” value [2] was “The order of the disulfide bond cleavage activity of the RBD from highest to lowest was PDI, ERp46, P5, ERp72, and ERp57”.

B2: gene recombinant of human ERp57 (protein disulfide-isomerase like protein ERp57) (protein)
chain: MGSSHHHHHHSSGLVPRGSHMLESDVLELTDDNFESRISDTGSAGLMLVEFFAPWCGHCKRLAPEYEAAATRLKGIVPLAKVDCTANTNTCNKYGVSGYPTLKIFRDGEEAGAYDGPRTADGIVSHLKKQAGPASVPLRTEEEFKKFISDKDASIVGFFDDSFSEAHSEFLKAASNLRDNYRFAHTNVESLVNEYDDNGEGIILFRPSHLTNKFEDKTVAYTEQKMTSGKIKKFIQENIFGICPHMTEDNKDLIQGKDLLIAYYDVDYEKNAKGSNYWRNRVMMVAKKFLDAGHKLNFAVASRKTFSHELSDFGLESTAGEIPVVAIRTAKGEKFVMQEEFSRDGKALERFLQDYFDGNLKRYLKSEPIPESNDGPVKVVVAENFDEIVNNENKDVLIEFYAPWCGHCKNLEPKYKELGEKLSKDPNIVIAKMDATANDVPSPYEVRGFPTIYFSPANKKLNPKKYEGGRELSDFISYLQREATNPPVIQEEKPKKKKKAQEDL
For B2, the “disulfide bond cleavage activity (remaining rate of native RBD; maleimide-PEG 2k, SDS-PAGE)” value [1] was “The order of the disulfide bond cleavage activity of the RBD of hCoV-229E from highest to lowest was PDI, ERp46, P5, Erp57, and ERp72” and the “disulfide bond cleavage activity (remaining rate of native RBD; maleimide-PEG 2k, SDS-PAGE)” value [2] was “The order of the disulfide bond cleavage activity of the RBD from highest to lowest was PDI, ERp46, P5, ERp72, and ERp57”.

B3: gene recombinant of human ERp72 (protein disulfide isomerase family A member 4) (protein)
chain: MGSSHHHHHHSSGLVPRGSHEGPDEDSSNRENAIEDEEEEEEEDDDEEEDDLEVKEENGVLVLNDANFDNFVADKDTVLLEFYAPWCGHCKQFAPEYEKIANILKDKDPPIPVAKIDATSASVLASRFDVSGYPTIKILKKGQAVDYEGSRTQEEIVAKVREVSQPDWTPPPEVTLVLTKENFDEVVNDADIILVEFYAPWCGHCKKLAPEYEKAAKELSKRSPPIPLAKVDATAETDLAKRFDVSGYPTLKIFRKGRPYDYNGPREKYGIVDYMIEQSGPPSKEILTLKQVQEFLKDGDDVIIIGVFKGESDPAYQQYQDAANNLREDYKFHHTFSTEIAKFLKVSQGQLVVMQPEKFQSKYEPRSHMMDVQGSTQDSAIKDFVLKYALPLVGHRKVSNDAKRYTRRPLVVVYYSVDFSFDYRAATQFWRSKVLEVAKDFPEYTFAIADEEDYAGEVKDLGLSESGEDVNAAILDESGKKFAMEPEEFDSDTLREFVTAFKKGKLKPVIKSQPVPKNNKGPVKVVVGKTFDSIVMDPKKDVLIEFYAPWCGHCKQLEPVYNSLAKKYKGQKGLVIAKMDATANDVPSDRYKVEGFPTIYFAPSGDKKNPVKFEGGDRDLEHLSKFIEEHATKLSRTKEEL
In the case of B3, the “disulfide bond cleavage activity (remaining rate of native RBD; maleimide-PEG 2k, SDS-PAGE)” value [1] is reported as “The order of the disulfide bond cleavage activity of the RBD of hCoV-229E from highest to lowest was PDI, ERp46, P5, Erp57, and ERp72” and the “disulfide bond cleavage activity (remaining rate of native RBD; maleimide-PEG 2k, SDS-PAGE)” value [2] is reported as “The order of the disulfide bond cleavage activity of the RBD from highest to lowest was PDI, ERp46, P5, ERp72, and ERp57”.
